Key:
Conditions in all cases: protein: recombinant; tags: His6; Alexa647 label; chain copies: 2; label: 5' biotin strand 1; Cy3B on strand 2 (position 13); blunt
[1] = target: T1, CAP (catabolite activator protein), Alexa647-CAP (UniProt P0ACJ8 2-210, H18C;C179S); assay: single-molecule TIRF (koff/kon); 0.2 mM cAMP, 10 mM Mg2+; kon 9.73e6 M-1s-1, t2 8.45 s; 1.5 nM CAP, 0.2 mM cAMP, 40 mM Tris pH 8, 100 mM KCl, 10 mM MgCl2, 5% glycerol, 1 mM TROLOX, glucose oxidase/catalase oxygen scavenger (Methods also lists 40% glucose), 27-30 C
[2] = target: T1, CAP (catabolite activator protein), …; assay: single-molecule TIRF (koff/kon); 0.2 mM cAMP, 10 mM Mg2+; kon 8.74e6 M-1s-1, t2 5.2 s; 1.5 nM CAP, 0.2 mM cAMP, 40 mM Tris pH 8, 100 mM KCl, 10 mM MgCl2, 5% glycerol, 1 mM TROLOX, glucose oxidase/catalase oxygen scavenger (Methods also lists 40% glucose), 27-30 C
[3] = target: T1, CAP (catabolite activator protein), …; assay: single-molecule TIRF (koff/kon); 0.2 mM cAMP, 10 mM Mg2+; kon 10.24e6 M-1s-1, t2 3.3 s; 1.5 nM CAP, 0.2 mM cAMP, 40 mM Tris pH 8, 100 mM KCl, 10 mM MgCl2, 5% glycerol, 1 mM TROLOX, glucose oxidase/catalase oxygen scavenger (Methods also lists 40% glucose), 27-30 C

B1: CAPcons DNA (GSeq-CAP-(1-49)) (dsDNA)
DNA 1: GTGCCTAAAATGTGATCTAGATCACATTTATTGCGTAGAGCTCACTGCC
DNA 2: GGCAGTGAGCTCTACGCAATAAATGTGATCTAGATCACATTTTAGGCAC
Kd [1]: ~12 nM

B2: CAPmut1 DNA (GP25/CP25) (dsDNA)
DNA 1: GTGCCTAAAATGTGATCTAGATCAGATTTATTGCGTAGAGCTCACTGCC
DNA 2: GGCAGTGAGCTCTACGCAATAAATCTGATCTAGATCACATTTTAGGCAC
Kd [2]: ~22 nM

B3: CAPmut2 DNA (GP25,CP38) (dsDNA)
DNA 1: GTGCCTAAAATCTGATCTAGATCAGATTTATTGCGTAGAGCTCACTGCC
DNA 2: GGCAGTGAGCTCTACGCAATAAATCTGATCTAGATCAGATTTTAGGCAC
Kd [3]: ~30 nM

Reference: article doi:10.1101/2022.02.27.482175, “Transient DNA binding to gapped DNA substrates links DNA sequence to the single-molecule kinetics of protein-DNA interactions”
